The target of data set [1] is T1, GIP130c with deletion of the N terminal 240-residues (human, UniProt Q4L180 241-1128).
T1 sequence: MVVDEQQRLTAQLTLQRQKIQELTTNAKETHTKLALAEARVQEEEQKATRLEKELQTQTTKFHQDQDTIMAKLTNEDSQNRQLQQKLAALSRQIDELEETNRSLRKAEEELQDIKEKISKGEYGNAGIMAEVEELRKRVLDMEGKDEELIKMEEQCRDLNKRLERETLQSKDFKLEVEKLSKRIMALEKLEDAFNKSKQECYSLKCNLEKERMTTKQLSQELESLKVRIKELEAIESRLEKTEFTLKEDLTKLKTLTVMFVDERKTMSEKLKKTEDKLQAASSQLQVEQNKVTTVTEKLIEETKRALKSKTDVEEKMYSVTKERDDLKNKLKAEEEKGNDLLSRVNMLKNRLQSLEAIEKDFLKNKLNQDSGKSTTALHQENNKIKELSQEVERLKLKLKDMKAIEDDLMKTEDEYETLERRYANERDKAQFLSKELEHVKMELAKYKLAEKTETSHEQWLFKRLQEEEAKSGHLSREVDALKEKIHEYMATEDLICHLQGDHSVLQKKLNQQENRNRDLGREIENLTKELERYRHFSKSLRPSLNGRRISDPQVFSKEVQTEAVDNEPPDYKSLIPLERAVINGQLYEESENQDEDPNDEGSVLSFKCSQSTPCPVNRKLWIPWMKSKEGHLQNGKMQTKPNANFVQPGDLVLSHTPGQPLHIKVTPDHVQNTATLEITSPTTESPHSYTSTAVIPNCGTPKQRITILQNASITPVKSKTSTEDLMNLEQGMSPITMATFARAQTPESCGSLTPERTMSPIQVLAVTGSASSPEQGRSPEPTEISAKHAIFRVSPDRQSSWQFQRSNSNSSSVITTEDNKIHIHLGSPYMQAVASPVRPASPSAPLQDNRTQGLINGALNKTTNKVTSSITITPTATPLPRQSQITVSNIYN
In words: yeast two-hybrid.

A further data set has as its target T2, DOC1-related protein (human, UniProt Q4L180 241-1128).
T2 sequence: T1 sequence
In words: yeast two-hybrid.

Data set [2] has as its target T3, GIP130b with deletion of the N terminal 240-residues (human, UniProt Q4L180 241-1128).
T3 sequence: T1 sequence
Briefly: yeast two-hybrid.

Another data set addresses T4, pol κ (UniProt Q9UBT6 1-870).
T4 construct: Tested in yeast two-hybrid (GAL4 domain fusion); also called primary protein product of the POLK
T4 sequence (looked up): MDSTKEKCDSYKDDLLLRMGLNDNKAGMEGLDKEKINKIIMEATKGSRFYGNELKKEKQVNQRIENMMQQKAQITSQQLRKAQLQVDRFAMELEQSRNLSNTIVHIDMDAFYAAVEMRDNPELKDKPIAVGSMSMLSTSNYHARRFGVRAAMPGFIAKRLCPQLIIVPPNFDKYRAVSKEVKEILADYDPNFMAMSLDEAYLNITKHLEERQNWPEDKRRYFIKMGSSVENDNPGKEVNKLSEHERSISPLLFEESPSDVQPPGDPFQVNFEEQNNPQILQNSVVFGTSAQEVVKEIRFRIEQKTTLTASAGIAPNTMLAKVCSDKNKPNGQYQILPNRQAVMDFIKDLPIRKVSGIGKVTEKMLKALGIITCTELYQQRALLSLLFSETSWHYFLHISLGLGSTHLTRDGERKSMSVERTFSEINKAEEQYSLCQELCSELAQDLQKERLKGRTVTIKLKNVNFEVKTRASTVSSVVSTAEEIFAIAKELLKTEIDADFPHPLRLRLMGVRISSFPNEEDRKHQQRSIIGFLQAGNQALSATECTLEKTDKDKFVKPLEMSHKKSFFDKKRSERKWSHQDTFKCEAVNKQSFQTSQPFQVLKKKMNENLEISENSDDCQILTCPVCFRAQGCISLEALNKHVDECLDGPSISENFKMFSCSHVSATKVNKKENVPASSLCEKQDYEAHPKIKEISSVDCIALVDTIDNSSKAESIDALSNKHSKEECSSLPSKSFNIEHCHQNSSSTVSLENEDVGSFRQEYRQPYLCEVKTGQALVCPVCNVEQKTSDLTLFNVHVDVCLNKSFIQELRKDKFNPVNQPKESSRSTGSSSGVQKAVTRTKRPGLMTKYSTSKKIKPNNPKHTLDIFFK
In words: yeast two-hybrid.

Data set [3] deals with T5, purified yeast recombinant GIP90 with FLAG tag at N-terminal position and 6 histidine tail at C-terminal position.
T5 chain: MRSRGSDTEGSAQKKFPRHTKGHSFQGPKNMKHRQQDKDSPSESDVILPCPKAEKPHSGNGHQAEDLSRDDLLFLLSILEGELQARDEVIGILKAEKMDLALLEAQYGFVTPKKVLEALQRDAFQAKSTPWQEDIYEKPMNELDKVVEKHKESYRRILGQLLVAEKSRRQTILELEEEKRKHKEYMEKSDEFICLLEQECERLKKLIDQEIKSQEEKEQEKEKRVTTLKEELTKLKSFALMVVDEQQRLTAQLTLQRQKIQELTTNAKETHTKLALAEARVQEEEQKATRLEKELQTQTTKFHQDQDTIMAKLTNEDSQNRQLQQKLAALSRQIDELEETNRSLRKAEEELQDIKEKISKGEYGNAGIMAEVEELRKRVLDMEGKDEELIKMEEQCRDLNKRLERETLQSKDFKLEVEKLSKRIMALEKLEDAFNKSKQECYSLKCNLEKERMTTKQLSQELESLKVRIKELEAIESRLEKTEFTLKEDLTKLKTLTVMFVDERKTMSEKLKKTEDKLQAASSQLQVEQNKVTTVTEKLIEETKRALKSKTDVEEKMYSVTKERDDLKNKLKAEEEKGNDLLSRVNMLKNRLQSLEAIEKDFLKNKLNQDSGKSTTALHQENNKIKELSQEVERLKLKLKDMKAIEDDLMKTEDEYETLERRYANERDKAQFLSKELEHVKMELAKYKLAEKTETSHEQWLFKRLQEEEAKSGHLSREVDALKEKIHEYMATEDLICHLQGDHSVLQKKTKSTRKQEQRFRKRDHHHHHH

From patent publication US20030108554A1 (published 2003) come the findings set out here.

B1: Goodpasture antigen binding protein (GPBP) (enzyme, UniProt Q9Y5P4 1-624, looked up)
chain: MSDNQSWNSSGSEEDPETESGPPVERCGVLSKWTNYIHGWQDRWVVLKNNALSYYKSEDETEYGCRGSICLSKAVITPHDFDECRFDISVNDSVWYLRAQDPDHRQQWIDAIEQHKTESGYGSESSLRRHGSMVSLVSGASGYSATSTSSFKKGHSLREKLAEMETFRDILCRQVDTLQKYFDACADAVSKDELQRDKVVEDDEDDFPTTRSDGDFLHSTNGNKEKLFPHVTPKGINGIDFKGEAITFKATTAGILATLSHCIELMVKREDSWQKRLDKETEKKRRTEEAYKNAMTELKKKSHFGGPDYEEGPNSLINEEEFFDAVEAALDRQDKIEEQSQSEKVRLHWPTSLPSGDAFSSVGTHRFVQKPYSRSSSMSSIDLVSASDDVHRFSSQVEEMVQNHMTYSLQDVGGDANWQLVVEEGEMKVYRREVEENGIVLDPLKATHAVKGVTGHEVCNYFWNVDVRNDWETTIENFHVVETLADNAIIIYQTHKRVWPASQRDVLYLSVIRKIPALTENDPETWIVCNFSVDHDSAPLNNRCVRAKINVAMICQTLVSPPEGNQEISRDNILCKITYVANVNPGGWAPASVLRAVAKREYPKFLKRFTSYVQEKTAGKPILF
notes: Protein kinase; Fusion parts are not written as pieces
On to B1, for which the binding result (in data set [1]; with DOC1-related protein; in data set [2]; with pol κ) was “no binding” throughout. In data set [3], the “^32P incorporation into GIP90 (in vitro phosphorylation with [γ^32P] ATP, Western blot and autoradiography)” value is “resulted in ^32P incorporation into GIP90”.
